Results published in PMC2900198.

Tests used:
[1] = target: Grass carp reovirus (GCRV) coat protein VP5 (grass carp reovirus (GCRV)); assay: cryo-EM structure
[2] = target: Grass carp reovirus (GCRV) turret protein VP1 (grass carp reovirus (GCRV)); assay: cryo-EM structure

Substance | stoichiometry N [1] | stoichiometry N [2]
Grass carp reovirus (GCRV) coat protein VP5 (natural protein) | 3 | 
Grass carp reovirus (GCRV) turret protein VP1 (natural protein) |  | 5
